# Biological target: R1-E5
# Test: BLI
binder,measurement,value
IL-15Rβ (receptor) AVNGTSQFTCFYNSRANISCVWSQDGALQDTSCQVHAWPDRRRWNQTCELLPVSQASWACNLILGAPDSQKLTTVDIVTLRVLCREGVRWRVMAIQDFKPFENLRLMAPISLQVVHVETHRCNISWEISQASHYFERHLEFEARTLSPGHTWEEAPLLTLKQKQEWICLETLTPDTQYEFQVRVKPLQGEFTTWSPWSQPLAFRTKPAALGKD,Kd,43 nM
